Measured values as given in patent US20240293499A1 (SUNNYBROOK RESEARCH INSTITUTE, published 2024).

Tests used:
[1] = molecular target: T1, hVISTA-COMP-his, pentameric form comprising the extracellular IgV domain of human VISTA (human, UniProt Q9H7M9 33-194); assay: SPR (BIAcore T200), single-cycle kinetics, hVISTA-COMP-his captured on anti-His chip, mAb injected at 20, 40, 80, 160, 320 nM, 1:1 fit
T1 construct: domain: extracellular IgV domain; not shown: his tag
Description: (§1) Binding kinetics of mAbs and Nbs to hVISTA and mVISTA were obtained by surface plasmon resonance (SPR) using a BIAcore T200 (Cytiva) and HBS running buffer (20 mM of HEPES pH 7.4, 150 mM NaCl, 0.005% Tween-20, 3.4 mM EDTA). Briefly, anti-histidine antibodies were immobilized on a CM5 chip (29149604; Cytiva) using the His capture kit (28995056; Cytiva) following manufacture's protocol. For mAbs, VISTA was captured by flowing […] of hVISTA-COMP-his or mVISTA-COMP-his at a flow rate of 30 μL/min. Sensorgrams were collected using single-cycle kinetics covering five mAb concentrations (1:2 serial dilutions). For Nbs, solutions of each nanobody ([…]) were flown over an anti-histidine-coated chip. Five concentrations (1:2 serial dilutions) of hVISTA-Fc (produced in house) were then injected at a flow rate of 30 μL/min. KD, Kₒₙ, and Koff were calculated by analyzing the sensorgrams with a 1:1 Langmuir binding model²³ after subtracting reference sensorgrams.

[2] = molecular target: T2, mVISTA-COMP-his, pentameric form comprising the extracellular IgV domain of murine VISTA (mouse, UniProt Q9D659 33-191); assay: SPR (BIAcore T200), single-cycle kinetics, mVISTA-COMP-his captured on anti-His chip, mAb injected at 20, 40, 80, 160, 320 nM, 1:1 fit
T2 construct: domain: extracellular IgV domain; Captured on an anti-histidine chip for SPR of the mAbs; also called recombinant mouse VISTA; not shown: his tag
T2 sequence (Q9D659 whole entry, looked up): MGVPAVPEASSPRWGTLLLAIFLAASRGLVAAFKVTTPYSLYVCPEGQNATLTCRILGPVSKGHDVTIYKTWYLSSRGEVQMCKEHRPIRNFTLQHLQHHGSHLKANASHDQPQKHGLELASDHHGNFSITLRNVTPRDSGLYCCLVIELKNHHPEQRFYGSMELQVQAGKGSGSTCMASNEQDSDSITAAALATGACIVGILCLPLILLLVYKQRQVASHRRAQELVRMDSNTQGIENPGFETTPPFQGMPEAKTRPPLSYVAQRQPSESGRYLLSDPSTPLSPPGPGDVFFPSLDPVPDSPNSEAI
Description: as §1

[3] = molecular target: T2, mVISTA-COMP-his, pentameric form …; assay: SPR (BIAcore T200), single-cycle kinetics; mVISTA-COMP-his captured on anti-His chip, mAb as analyte; 1:1 Langmuir fit
Description: as §1

[4] = molecular target: T1, hVISTA-COMP-his, pentameric form …; assay: SPR (BIAcore T200), single-cycle kinetics; hVISTA-COMP-his captured on anti-His chip, mAb as analyte; 1:1 Langmuir fit
Description: as §1

[5] = molecular target: T1, hVISTA-COMP-his, pentameric form …; assay: SPR (BIAcore T200), single-cycle kinetics, hVISTA-COMP-his captured on anti-His chip, mAb injected at 0.5, 1, 2, 4, 8 nM, 1:1 fit
Description: as §1

[6] = molecular target: T3, hVISTA-Fc (produced in house) (human, UniProt Q9H7M9 33-194, limits assumed); assay: SPR (BIAcore T200), single-cycle kinetics, Nb captured on anti-His chip, hVISTA-Fc injected at 1.9, 3.8, 7.5, 15, 30 nM, 1:1 fit
T3 construct: Analyte in the SPR of the nanobodies; not shown: Fc
T3 sequence (looked up): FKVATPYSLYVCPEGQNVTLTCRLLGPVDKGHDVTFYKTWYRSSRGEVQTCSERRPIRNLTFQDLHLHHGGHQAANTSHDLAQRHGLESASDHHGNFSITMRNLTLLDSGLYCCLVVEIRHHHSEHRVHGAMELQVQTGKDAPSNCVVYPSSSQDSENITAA
Description: as §1

[7] = molecular target: T3, hVISTA-Fc (produced in house); assay: SPR (BIAcore T200), single-cycle kinetics; Nb captured on anti-His chip, hVISTA-Fc as analyte; 1:1 Langmuir fit
Description: as §1

[8] = molecular target: T4, human VISTA on primary human immune cells (CD14+CD16- classical monocytes of PBMCs) (human, UniProt Q9H7M9 33-311); assay: flow cytometry on human PBMC, gate CD14+CD16- monocytes, ΔMFI against isotype control, 5 donors
T4 construct: whole, on cells; Native protein on donor cells; also called hVISTA
T4 sequence (looked up): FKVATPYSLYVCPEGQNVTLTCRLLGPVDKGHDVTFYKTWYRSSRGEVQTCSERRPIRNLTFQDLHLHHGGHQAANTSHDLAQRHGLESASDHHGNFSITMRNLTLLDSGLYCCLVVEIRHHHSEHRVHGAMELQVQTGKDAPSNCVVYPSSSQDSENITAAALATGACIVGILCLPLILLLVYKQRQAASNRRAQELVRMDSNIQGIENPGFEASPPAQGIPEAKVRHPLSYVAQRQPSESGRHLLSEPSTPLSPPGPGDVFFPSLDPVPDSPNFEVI
Description: (§2) Binding of mAbs and Nbs to human and murine immune cells were tested using human PBMCs and mouse splenocytes. For binding on human cells, whole human blood was obtained from donors in accordance with guidelines set forth by the Sunnybrook Research Ethics board (REB approval number 443-2017). Human peripheral blood mononuclear cells (PMBCs) were isolated from whole blood using Ficoll Paque PLUS (1.077 g/ml) (17144003; Cytiva). PBMCs had their Fc receptors blocked with Human TruStain FcX (422301; BioLegend) then incubated with 2.5 μg of mAb, mouse IgG1 (401408; BioLegend), or rat IgG2a (400565; BioLegend) or 15 μg Nb for 1 hour at 4° C. After washing with PBS, the PBMCs were incubated with secondary antibodies (1 μL; FITC anti-mouse IgG1, FITC anti-HA, or FITC anti-rat IgG2a; 406605, 901507, or MRG2a-83; BioLegend) or control FITC anti-VISTA antibodies (clone B7H5DS8; 11-1088-42; eBioscience) for 40 minutes at 4° C. […] Finally, the PBMCs were washed and resuspended in 3 μM DAPI (D1306; Thermo Fisher Scientific) and cytometric profiles recorded using a BD LSR II flow cytometer (BD) maintained by The Centre for Flow Cytometry & Scanning Microscopy (CCSM) at Sunnybrook Research Institute (SRI; Sunnybrook Health Sciences Centre, Toronto, ON, Canada). […]

[9] = molecular target: T1, hVISTA-COMP-his, pentameric form …; assay: SPR (BIAcore T200), single-cycle kinetics, hVISTA-COMP-his captured on anti-His chip, mAb injected at 1, 2, 4, 8, 16 nM, 1:1 fit
Description: as §1

[10] = molecular target: T1, hVISTA-COMP-his, pentameric form …; assay: SPR (BIAcore T200), single-cycle kinetics, hVISTA-COMP-his captured on anti-His chip, mAb injected at 2, 4, 8, 16, 32 nM, 1:1 fit
Description: as §1

[11] = molecular target: T4, human VISTA on primary human immune …; assay: flow cytometry on human PBMC, gate CD14+CD16- monocytes, ΔMFI against isotype control, 5 donors; representative histogram against mIgG
Description: as §2

B1: rat anti-hmVISTA mAb 7C7 (antibody, V domains shown)
VH: EVQLVESGGGLVQPGRSLKLSCVASGFTFNKYWMSWTRQAPGKGLEWVASITNSGGNTYYPDSVKGRFTISRDNAQNTLYLQMNSLRSEDTATYYCTLGVDYWGQGAMVTVSS
VL: DVVMTQTPPSLSVTIGQSVSISCKSSQSLVYSDGKTYLHWLLQSSGRSPKRLIYQVSNLASGVPDRFSGTGSQKDFTLKISRVEAKDLGVYYCAQTTHFPYTFGAGTKLEMK
notes: Variable regions only; Rat IgG2a from hybridoma
**Q.** For B1, which Kd [1] is on record?
**A.** 49.4 nM

**Q.** And the koff [1]?
**A.** 2.2 s⁻¹

**Q.** What about the kon [1] of the same binder?
**A.** 4.45e+07 M⁻¹ s⁻¹

**Q.** What about the Kd [2] of the same binder?
**A.** 50.5 nM

**Q.** What about the koff [2] of the same binder?
**A.** 0.002 s⁻¹

**Q.** And the kon [2]?
**A.** 39600 M⁻¹ s⁻¹

**Q.** What about the Kd [3] of the same binder?
**A.** 51 nM

**Q.** And the Kd [4]?
**A.** 49 nM

B2: murine anti-hVISTA mAb 7E12 (antibody, V domains shown)
VH: DVHLQESGPGLVKPSQSLSLTCSVTGYSITSGYYWNWIRQFPGNKLEWMGYISYDGNNNYNPSLKNRISITRDTSKNQFFLKLNSVTTEDTATYYCARGDYGSEAMDYWGQGTSVTVSS
VL: DIRVTQSPASLAVSLGQRATISCRASKSVSTSGYSYMNWYQQKPGQPPQLLIYLASNLESGVPARFSGSGSGTDFTLNIHPVEEEDAAIYYCQHSRELPWTFGGGTKLEIK
notes: Mouse IgG1 purified from hybridoma
**Q.** What does the source list for B2?
**A.** Kd [4]: 0.44 nM; Kd [5]: 0.442 nM; koff [5]: 0.000123 s⁻¹; kon [5]: 279000 M⁻¹ s⁻¹

B3: anti-hVISTA nanobody hVISTANb1 (VHH)
VHH: QVQLQESGGGLVQPGGSLRLSCAASGSVGTIFSMGWFRQAPGVQREMVATITNSGETNYAAFVKGRFTISRDNAENTVYLQMNSLKPEDTAAYYCNAFDYVGGRTYELPYWGQGTQVTVSS
notes: Llama nanobody made in E. coli WK6, purified by IMAC, detected with anti-HA
**Q.** How did the Kd [6] turn out when B3 was run?
**A.** 10.8 nM

**Q.** What about the koff [6] of the same binder?
**A.** 0.00109 s⁻¹

**Q.** What about the kon [6] of the same binder?
**A.** 102000 M⁻¹ s⁻¹

**Q.** And the Kd [7]?
**A.** 11 nM

B4: murine anti-hVISTA mAb 7G5 (antibody, V domains shown)
VH: QIQLVQSGPELKKPGETVKISCKASGYTFTNYGMNWVKQAPEKGLKWMGWINTYTGEPTYADDFKGRFAFSLETSASTAYLQINNLKNEDTATYFCARRSNPWPNDYWGQGTSLTVSS
VL: DIQMTQSPSSFSASLGERVSLTCRASQEISGYLSWLQQKPDGTIKRLIYAASTLDSGVPKRFSGSRSGSDYSLTISSLESEDFADYYCLQYASYPWTFGGGTKLEIK
notes: Variable regions only, although headed 'Heavy Chain' and 'Light Chain'; Mouse IgG1 from hybridoma
**Q.** Does B4 bind [8]?
**A.** binds

**Q.** What about the Kd [4] of the same binder?
**A.** 0.14 nM

**Q.** What about the Kd [9] of the same binder?
**A.** 0.136 nM

B5: murine anti-hVISTA mAb 8G10 (antibody, V domains shown)
VH: QVQLQQSGAELVRPGASVTLSCKASGYTFTDYEMHWVKQTPVHGLEWIGAIDPETGGTAYNQKFKGKATLTADKSSSTAYMELRSLTSEDSAVYYCTRWSLRPYAMDYWGQGTSVTVSS
VL: DVVMTHTPLSLPVSLGDQASISCRSSQSLVHNNGNTYLHWYLQKPGQSPKLLIYKVSNRFSGVPDRFSGSGSGTDFTLKISRVEAEDLGLYFCSQSTHVPWTFGGGTKLEIK
notes: as for B4
**Q.** With B5 as the binder, how does the Kd [10] read?
**A.** 0.98 nM

**Q.** And the koff [10]?
**A.** 0.000111 s⁻¹

**Q.** And the kon [10]?
**A.** 113000 M⁻¹ s⁻¹

**Q.** And the Kd [4]?
**A.** 0.98 nM

**Q.** Does B5 bind [11]?
**A.** binds
